Publication PMC6198961, “The dimeric structure of wild-type human glycosyltransferase B4GalT1” (PLoS ONE, 2018)

Target: the molecule itself
Experiment: SEC; gel filtration on a 24 ml Superdex 200 HR 10/30 column calibrated with γ-globulin (158 kDa), ovalbumin (44 kDa) and myoglobin (17 kDa); monomer and dimer

B1: catalytic domain of human B4GalT1 (Asp99-Ser398), wild type (domain or fragment, UniProt P15291 99-398, looked up)
chain: DSSPVVDSGPGPASNLTSVPVPHTTALSLPACPEESPLLVGPMLIEFNMPVDLELVAKQNPNVKMGGRYAPRDCVSPHKVAIIIPFRNRQEHLKYWLYYLHPVLQRQQLDYGIYVINQAGDTIFNRAKLLNVGFQEALKDYDYTCFVFSDVDLIPMNDHNAYRCFSQPRHISVAMDKFGFSLPYVQYFGGVSALSKQQFLTINGFPNNYWGWGGEDDDIFNRLVFRGMSISRPNAVVGRCRMIRHSRDKKNEPNPQRFDRIAHTKETMLSDGLNSLTYQVLDVQRYPLYTQITVDIGTPS
notes: EC 2.4.1.38), human, residues Asp99-Ser398: a piece of the stem domain (Asp99-Leu125) and the catalytic domain (Ser126-Ser398); the construct's calculated molecular weight is printed as 36.35 kDa; The tag is surmised from the nickel purification; In equilibrium between monomer and dimer; also called Beta-1,4-galactosyltransferase 1; recombinant B4GalT1; source: E. coli BL21(DE3) with the CyDisCo …
- stoichiometry N: 2
